Laboratory results: patent publication US20250075249A1 (QUEENSLAND UNIVERSITY OF TECHNOLOGY, published 2025)

B1: FRB-CaM-BP (fusion of FRB and a low affinity calmodulin binding peptide) (other)
chain: AHHHHHHSSGTRVAILWHEMWHEGLEEASRLYFGERNVKGMFEVLEPLHAMMERGPQTLKETSFNQAYGRDLMEAQEWCRKYMKSGNVKDLTQAWDLYYHVFRRISGGSGGSGSGSGGSGGKRRWKKNFIAVSAANR

How the values were obtained:
Assay in all cases: cell-based or functional assay
[1] = target: FKBP-2CaM-Tre-FKBP fusion protein
FKBP-2CaM-BLA-FKBP = target: FKBP-2CaM-BLA-FKBP
[2] = target: Tre G104_P321 CaM chimera

| Binder | apparent Kd from titration with rapamycin (small molecule varied; 100 nM 2FKBP-Tre-2CaM, 200 nM FRB-CaM-BP; trehalase activity) [1] [nM] | apparent Kd from titration with rapamycin (small molecule varied; 25 nM BLA-2CaM-2FKBP, 100 nM FRB-CaM-BP; β-lactamase activity) (FKBP-2CaM-BLA-FKBP) [nM] | EC50 (read off the curve) [2] [nM] |
| --- | --- | --- | --- |
| B1 | 89 | 11 | – |
| KRRWKKNFIAVSAANRFKKISSSGAL (peptide, UniProt P07313 578-603, looked up) [M13 calmodulin binding peptide] | – | – | ~60 |
